Where a chain is given by its changes, count along the chain named.
T1: CD1a[H86 A] (human, UniProt P06126 18-295, limits assumed)
T1 construct: also called point mutant CD1a[H86A]
T1 chain: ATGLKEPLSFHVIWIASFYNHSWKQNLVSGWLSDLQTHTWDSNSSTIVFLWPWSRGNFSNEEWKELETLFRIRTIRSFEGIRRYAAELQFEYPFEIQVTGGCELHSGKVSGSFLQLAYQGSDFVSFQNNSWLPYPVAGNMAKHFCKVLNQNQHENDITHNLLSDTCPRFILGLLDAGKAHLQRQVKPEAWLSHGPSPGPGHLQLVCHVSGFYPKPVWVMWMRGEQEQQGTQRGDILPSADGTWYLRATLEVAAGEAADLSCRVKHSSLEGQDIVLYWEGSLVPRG

B1: 77A (VR11851) (antibody, V domains shown)
VH: QSVEESGGRLVTPGTPLTLTCTVSGFSLSSYAMSWVRQAPGKGLEWIGIISSSGTTYYASWAKGRFTISKTSTTVDLKITSPTTEDTATYFCARVDYYSSGWGGLWGPGTLVTVSS
VL: AVEMTQTPASMSAAVGGTVTIKCQASEDIYSNLAWYQQKPGQPPKLLIYGASTLASGVPSRFKGSGSGTEYTLTISGVQCDDAATYYCQCTYDTSSYGNTFGGGTEMVVE
notes: also called OX77a; antibody 77a
B2: 111 (VR12113) (antibody, V domains shown)
VH: QSVEESGGRLVTPGTPLTLTCTASGFSLSTYAMSWVRQAPGKGLEWIGIISSSGSTYYASWAKGRFTISKTSTTVDLKITSPTTEDTATYFCARETWYWLDLWGQGTLVTVSS
VL: B1 VL with M11V, K22N, T91A, T94S, N99T, T100P, M107V, E110K
notes: also called OX111
B3: 116 (VR12117) (antibody, V domains shown)
VH: QSVEESGGRLVTPGTPLTLTCTVSGFSLSNYAMSWVRQAPGKGLEWIGIIYTTGFTYYASWVKGRFTISKTSTTVDLKITSPTTEDTATYFCARGLATYVSPPTRLDLWGQGTLVTVSS
VL: AQVLTQTPSPVSAAVGGTVTINCQASQSIYNSKNLAWYQQKPGQPPKLLIYSASTLASGVPSRFKGSGSGTQFTLTISDLECDDAATYYCQGEFSCSSVDCATFGGGTEVVVK
notes: also called OX116
B4: 110 (VR12112) (antibody, V domains shown)
VH: QSVEESGGRLVTPGTPLTLTCTVSGFSLSSYAMIWVRQAPGKGLEWIGIINSSDNTHYATWAKGRFTISKTSTTVDLKITSPTTEDTATYFCARDPYDYGYGWYFDLWGPGTLVTVSS
VL: AQVLTQTPSPVSAAVGGTVTINCQASQSVFNNKNLAWYQQKPGQPPKLLIYKASTLASGVSSRFKGSGSGTQFALTISGVQCDDAATYYCQGEFSCSSTDCVTFGGGTEVVVK
notes: also called OX110; antibody 110

How the values were obtained:
[1] = target: T2, human CD1a expressed on cells (human, UniProt P06126 17-327; P61769 21-119); experiment: flow cytometry, MOLT4 cells, 1 µg/ml antibody
T2 construct: also called HEK - CD1a; C1R - CD1a

[2] = target: T2, human CD1a expressed on cells; experiment: flow cytometry, C1R cells, 0.0316 µg/ml antibody
[3] = target: T1, CD1a[H86 A]; experiment: epitope mapping experiments (not described)

Row | Binder | Fluorescence Intensity Geomean (normalized to background) [1] | Fluorescence Intensity Geomean (normalized to background) [2] | binding result [3]
1 | B1 | 13.5 fold over background | 17 fold over background | 
2 | B2 | 31.2 fold over background | 26 fold over background | 
3 | B3 | 30.6 fold over background | 24.1 fold over background | 
4 | B4 | 33 fold over background | 17.1 fold over background | no binding
